Data set [1] has as its system mAb L235. Briefly: BIAcore analysis of native and boiled p97 on immobilized mAb L235. The format is physicochemical. To be noted: in Ringer/Hepes solution, boiled 5 to 30 min (FIG. 13b). The procedure: FIG. 13 illustrates the transcytosis and accumulation of p97 and transferrin in BBCEC monolayers. FIG. 13a, Transcytosis experiments were performed at 37° C. (solid bars) or 4° C. (white bars). [^125I]-p97 or bovine [^125I]-holo-transferrin (1 mg/ml) was added to the upper side of the cell-covered filter. At the end of the experiment, radiolabelled proteins were measured in the lower chamber of each well by TCA precipitation (n=4). Controls were also performed at 37° C. with denatured [^125I]-p97 or bovine [^125I]-holo-transferrin boiled for 30 min (grey bars) (n=2); FIG. 13b, Biospecific interaction analysis was performed with native or boiled p97 for the indicated times. MAb L235 (5 μg) was immobilized on a sensor chip (SM5) using standard procedures incorporating NHS, EDC and ethanolamine. Native and boiled p97 (5 to 30 min) diluted at 1 mg/ml in Ringer/Hepes was cooled and injected into the BIAcore. The surface plasmon resonance response obtained for native p97 and boiled p97 was plotted (in relative units (RU)) as a function of time; FIG. 13c, The accumulation of both proteins into BBEC cells were also measured. Briefly, after incubation at 37° C. (solid bars) or 4° C. […] Accumulation of both denatured proteins (grey bars) was also measured at 37° C. Filters were then removed, and the radioactivity associated with the cells was quantified (n=3). […]

The test system of data set [2] is astrocytes and astrocytoma cells. In words: Uptake of [125I]-p97 in rat astrocytes and astrocytoma cells. It counts as cell-based. The conditions noted are these: 50 nM p97, 2 h at 37° C. (FIG. 24). As to the method:
FIG. 24. Uptake of p97 in rat astrocytes and astrocytoma cells. Cells were grown in monolayer in six-multiwell microplates at 37° C. under 5% CO2. Uptake of [^125I]-p97 was measured at 37° C. for 2 h in astrocytes and astrocytomas. The incubation medium contained [^125I]-p97 and a final concentration of 50 nM p97 in Ringer/Hepes solution. After incubation, the cell monolayer was washed three times with cold Ringer/Hepes solution. Triton X-100 0.1% was added and the [^125I]-p97 uptake was assessed in the Triton X-100 soluble fraction by TCA precipitation. Results represent means±SD (n=3, Astro; n=6, CTX and RG2; n=9, C6).
Uptake of [^125I]-p97. Cells were grown in monolayer in six-multiwell microplates at 37° C. under 5% CO2. Uptake of [^125I]-p97 was measured at 37° C. for 2 h in astrocytes and astrocytomas. The incubation medium contained [^125I]-p97 and a final concentration of 50 nM P97 in Ringer/Hepes solution. The uptake of [^125I]-p97 was performed in presence or in absence of 5 μM cold-P97. After incubation, the cell monolayer was wash three times with cold Ringer/Hepes solution. Triton X-100 0.1% was added and the [^125I]-p97 uptake was assessed in the Triton X-100 soluble fraction by TCA precipitation.

For data set [3], the system named is endogenous melanotransferrin. Briefly: RT-PCR after p97 treatment in U-87 cells: endogenous melanotransferrin. It counts as cell-based, human. To be noted: RT-PCR (FIG. 36). As to the method: FIG. 36. Effect of p97 and RAP treatments in U-87 cells (RT-PCR) on endogenous melanotransferrin. Cells (2×105) were plated onto six-multiwell microplates and grown at 37° C. under 5% CO2 with optimal culture medium supplemented with serum for 4 days. Treatment with p97 and RAP was performed in serum free medium for 72 hours. RNA isolation and RT-PCR were performed as described in the Examples. The amplified PCR products were electrophoresed on a 2% agarose gel and visualized under ultraviolet light. (n=1).
RNA extraction. Cells in six-wells plate or in 75 cm^2 plastic tissue culture flasks were grown at 37° C. under 5% CO2 with optimal culture medium to 80-90% confluence. Total cellular RNA was preserved in Trizol (Gibco BRL, Burlington, ON). The solution are frozen at −80° C. until extraction. The solution was defroze and mixed with 5:1 chloroform for 3 minutes at room temperature. The suspension was centrifugated at 12000 g at 4° C. The clear supernatant was collected then mixed with 1:1 of isopropanol for 15 minutes at room temperature. The mix was centrifugated at 12000×g for 10 min at 4° C. The pellets was washed with 70% ethanol and dried before resuspended in RNase Free H2O.
RT-PCR. RT-PCR was performed for members of the LDL-R family: LRP, LRP1B, megalin, LDL, VLDL, LRP8, LR11, RAP, LR3, cubulin and P97. […]

B1: p97: recombinant human melanotransferrin (p97), provided by Synapse Technologies (protein, UniProt P08582 20-709, looked up)
Melanotransferrin: GMEVRWCATSDPEQHKCGNMSEAFREAGIQPSLLCVRGTSADHCVQLIAAQEADAITLDGGAIYEAGKEHGLKPVVGEVYDQEVGTSYYAVAVVRRSSHVTIDTLKGVKSCHTGINRTVGWNVPVGYLVESGRLSVMGCDVLKAVSDYFGGSCVPGAGETSYSESLCRLCRGDSSGEGVCDKSPLERYYDYSGAFRCLAEGAGDVAFVKHSTVLENTDGKTLPSWGQALLSQDFELLCRDGSRADVTEWRQCHLARVPAHAVVVRADTDGGLIFRLLNEGQRLFSHEGSSFQMFSSEAYGQKDLLFKDSTSELVPIATQTYEAWLGHEYLHAMKGLLCDPNRLPPYLRWCVLSTPEIQKCGDMAVAFRRQRLKPEIQCVSAKSPQHCMERIQAEQVDAVTLSGEDIYTAGKTYGLVPAAGEHYAPEDSSNSYYVVAVVRRDSSHAFTLDELRGKRSCHAGFGSPAGWDVPVGALIQRGFIRPKDCDVLTAVSEFFNASCVPVNNPKNYPSSLCALCVGDEQGRNKCVGNSQERYYGYRGAFRCLVENAGDVAFVRHTTVFDNTNGHNSEPWAAELRSEDYELLCPNGARAEVSQFAACNLAQIPPHAVMVRPDTNIFTVYGLLDKAQDLFGDDHNKNGFKMFDSSNYHGQDLLFKDATVRAVPVGEKTTYRGWLGLDYVAALEGMSSQQC
Take B1: the “Resistance to heat denaturation” value in data set [1] is “resistant to heat denaturation”. The “Specific uptake of p97 in astrocytoma cells over astrocytes” value in data set [2] is recorded as “greatly increased”. Also, in data set [3], the “Expression of endogenous p97” value is on record as “appears to induce its own expression”.
